The chains are these.
B1: α-subunit of the F1 part of the Na+-F1FO-ATP synthase of Acetobacterium woodii, N-terminal StrepI tag (natural protein, UniProt P50000 1-502, looked up)
chain: MNLRPEEISQIIKNEIERYEDKLEVVDVGTVIQVGDGVARVHGLENAMAGELLAFPNEVYGMVLNLEEDNVGCVLLGYDDDIVEGDIVRCTGRIVEVPVGEAMIGRVVNALGFPVDGKGPIVTDHRRPVEVKAAGVIERESVNQPIQTGYKAIDSMIPIGRGQRELIIGDRQTGKTALAIDTIINQKGEDVICIYVAIGQKDSTVAQIVGQLEENNAMDYTIIVSAGAAQLAPLQYIAPYSGVTMAEYFMNEQQKDVLIIYDDLSKHAVAYRAMSLILRRPPGREAYPGDVFYLHSRLLERAAKLKAGGSITALPIIETQAGDVSAYIPTNVISITDGQIFLEAELFRSGIRPAVNPGISVSRVGGSAQIKSMKKVAGPLRIEYAQYRELASFAQFGSDLDDETKAQLAKGERIVEILKQDQYDPMNVEDQVLILYAATNGFLLDIEVKDIREFEKGLIKFAQKKYPEIMTKVKGKDGLSDEVVAAFAECIEAYKKVFSKSV
notes: ATP synthase subunit alpha (gene atpA) of the Na+-F1FO-ATP synthase, Acetobacterium woodii; also called α[WT]; StrepI-α; source: E. coli BL21gold(DE3), purified (Strep-Tactin, SEC); not shown: StrepI, N-terminal, kept
B3: central stalk γε complex of the A. woodii F1 ATP synthase (atpG and atpC expressed bicistronically, His6 tag on ε) (complex, Acetobacterium woodii)
chain 1: MAENVQDIKRRIKSVNSTMQITHAMELVASAKLRKSRELAEGRRPYFEAMIESIGRIVEKSGNARNIFMDQREVKKTAYIIITGDKGLAGGYNVNVAKLVEEHITDKENAVLFTVGSRGRDHFRNREYHIQGEYLGISERPNFFNAKEVTAIVMEGFKNGEYDEVYIAYTKFVSTITQHAQMMKLLPLSAEELITSGKVKTTEETKEEKSKMSDRELTIMTYEPEPEELLKYLIPNFVSSTVYGSMIESAASEQGARRTAMESATTNANEMIDGLTLQYNRVRQAAITQEISEIVGGAEALN
chain 2: MAETFRLKIIAPTGVFFDDDIERVVIRGIEGELAILAEHTPLTTNVAIGTFNIIFADKKKKNGTLLGGIATINPRETIILTDAAEWPEEIDIKRAQEAKERALKRIHDDKFDTARARAALERAIARINSKENV
notes: ATP synthase subunit gamma (gene atpG) of the Na+-F1FO-ATP synthase, Acetobacterium woodii; ATP synthase subunit epsilon (gene atpC) of the Na+-F1FO-ATP synthase, Acetobacterium woodii; source: E. coli BL21gold(DE3), co-expressed, purified (Ni-NTA, SEC); copies: 1 + 1
B4: in vitro assembled αβ heterodimer (StrepI-α with His6-β, in ATP/Mg2+ or other nucleotide/Mg2+) (complex, Acetobacterium woodii)
chain 1: MNLRPEEISQIIKNEIERYEDKLEVVDVGTVIQVGDGVARVHGLENAMAGELLAFPNEVYGMVLNLEEDNVGCVLLGYDDDIVEGDIVRCTGRIVEVPVGEAMIGRVVNALGFPVDGKGPIVTDHRRPVEVKAAGVIERESVNQPIQTGYKAIDSMIPIGRGQRELIIGDRQTGKTALAIDTIINQKGEDVICIYVAIGQKDSTVAQIVGQLEENNAMDYTIIVSAGAAQLAPLQYIAPYSGVTMAEYFMNEQQKDVLIIYDDLSKHAVAYRAMSLILRRPPGREAYPGDVFYLHSRLLERAAKLKAGGSITALPIIETQAGDVSAYIPTNVISITDGQIFLEAELFRSGIRPAVNPGISVSRVGGSAQIKSMKKVAGPLRIEYAQYRELASFAQFGSDLDDETKAQLAKGERIVEILKQDQYDPMNVEDQVLILYAATNGFLLDIEVKDIREFEKGLIKFAQKKYPEIMTKVKGKDGLSDEVVAAFAECIEAYKKVFSKSV
chain 2: MAQNIGKVVQVIGPVVDVKFQKDKLPKLNNAVNIELNGHTLVIEVAQQLGDDIVRCIAMDSTDGLMRNQEAVDTGSAIQVPVGKATLGRMFNVLGEPIDGKPFDTKDVVMHPIHRHPPSFEEQQTQPEMFETGIKVVDLICPYVRGGKIGLFGGAGVGKTVLIQELINNIATQHGGLSVFAGVGERTREGNDLYYEMMESGVINKTALCFGQMNEPPGARMRIALAGLTMAEYFRDDEGQDVLLFIDNIFRFTQAGSEVSALLGRMPSAVGYQPTLATEMGALQERITSTSKGSITSVQAVYVPADDLTDPAPATTFAHLDATTVLSRAITEKGIYPAVDPLDSTSRILDPKIVGQEHYETAREVQEILQRYKELQDIIAILGMDELSDADKITVSRARKVERFLSQPFNVAEQFTGTAGVYVTIGDTIKGFKEILEGQHDDLPESAFLLVGTIEDAVVKAKKIKG
notes: ATP synthase subunit alpha (gene atpA), Acetobacterium woodii; as m1; ATP synthase subunit beta (gene atpD), Acetobacterium woodii; as m2; also called in vitro αβ; source: assembled in vitro from subunits purified from E. coli BL21gold(DE3); not shown: StrepI, N-terminal, kept; His6, N-terminal, kept; copies: 1 + 1

Details in all cases: both partners purified
The target in experiment [1] is B3. In words: native MS; LILBID-MS; purified subunits incubated in 50 mM KPi, 200 mM NaCl, 2 mM ATP, 2 mM MgCl2, 10% glycerol, pH 7.4, 4 °C, 1 h; exchanged into 100 mM ammonium acetate, 2 mM ATP, 2 mM MgCl2, pH 7.4.
In experiment [2] the target is T1, α-subunit mutant α[R363K], A. woodii (Acetobacterium woodii, UniProt P50000 1-502, R363K).
T1 construct: ATP synthase subunit alpha (gene atpA), Acetobacterium woodii, point mutant; source: E. coli BL21gold(DE3), purified (Strep-Tactin, SEC)
Description: SEC; HPLC on a bioZen 1.8 µm SEC-3 column, 60 µg protein, elution buffer B (50 mM KPi, 200 mM NaCl, 2 mM ATP, 2 mM MgCl2, pH 7.4), 4 °C. (Size exclusion chromatography separates by hydrodynamic size, large species first.)

Experiment [3] addresses T2, α-subunit mutant α[R363Q], A. woodii (Acetobacterium woodii, UniProt P50000 1-502, R363Q).
T2 construct: ATP synthase subunit alpha (gene atpA), Acetobacterium woodii, point mutant; source: E. coli BL21gold(DE3), purified (Strep-Tactin, SEC)
The experiment is described as above.

The target of experiment [4] is B1. In words: native MS; LILBID-MS; purified subunits incubated in 50 mM KPi, 200 mM NaCl, 2 mM ATP, 2 mM MgCl2, 10% glycerol, pH 7.4, 4 °C, 1 h; exchanged into 100 mM ammonium acetate, 2 mM ATP, 2 mM MgCl2, pH 7.4.
Experiment [5] deals with B4. The experiment is described as above.
The target in experiment [6] is T3, α[R363Q]β[WT] heterodimer assembled in vitro in ATP/Mg2+ (Acetobacterium woodii, UniProt P50000 1-502; P50002 1-466, R363Q).
T3 construct: ATP synthase subunit alpha (gene atpA), Acetobacterium woodii; as m9; ATP synthase subunit beta (gene atpD), Acetobacterium woodii; as m2; source: assembled in vitro from subunits purified from E. coli BL21gold(DE3); not shown: His6, N-terminal, kept; copies: 1 + 1
The experiment is described as above.

The source of these data is publication PMC8904574, “Bacterial F-type ATP synthases follow a well-choreographed assembly pathway” (Nature Communications, 2022).

By stoichiometry N is commonly meant the number of molecules, sites or subunits per partner or assembly.

On to B1, for which, in experiment [1], the “stoichiometry N” value was not above 1.

B2: β-subunit of the F1 part of the Na+-F1FO-ATP synthase of Acetobacterium woodii, N-terminal His6 tag (natural protein, UniProt P50002 1-466, looked up)
chain: MAQNIGKVVQVIGPVVDVKFQKDKLPKLNNAVNIELNGHTLVIEVAQQLGDDIVRCIAMDSTDGLMRNQEAVDTGSAIQVPVGKATLGRMFNVLGEPIDGKPFDTKDVVMHPIHRHPPSFEEQQTQPEMFETGIKVVDLICPYVRGGKIGLFGGAGVGKTVLIQELINNIATQHGGLSVFAGVGERTREGNDLYYEMMESGVINKTALCFGQMNEPPGARMRIALAGLTMAEYFRDDEGQDVLLFIDNIFRFTQAGSEVSALLGRMPSAVGYQPTLATEMGALQERITSTSKGSITSVQAVYVPADDLTDPAPATTFAHLDATTVLSRAITEKGIYPAVDPLDSTSRILDPKIVGQEHYETAREVQEILQRYKELQDIIAILGMDELSDADKITVSRARKVERFLSQPFNVAEQFTGTAGVYVTIGDTIKGFKEILEGQHDDLPESAFLLVGTIEDAVVKAKKIKG
notes: ATP synthase subunit beta (gene atpD) of the Na+-F1FO-ATP synthase, Acetobacterium woodii; also called β[WT]; His6-β; source: E. coli BL21gold(DE3), purified (Ni-NTA, SEC); also co-expressed with other F1 subunits in E. coli as the tagged subunit of the in cellula complexes; not shown: His6, N-terminal, kept
On to B2, for which the binding result in experiment [2], in experiment [3] and in experiment [4] was “binds” in each case. Besides, the “stoichiometry N” value in experiment [1] was not above 1.
Consider B3, for which the binding result in experiment [5] and in experiment [6] was “binds” each time.
As for B4, the “stoichiometry N” value in experiment [1] is 3.
